The numbers were not newly measured in patent US20250049892A1, “SEMAGLUTIDE SOLUBLE MICRONEEDLE COMPOSITION AND PREPARATION METHOD THEREFOR” (GUANGZHOU NOVAKEN PHARM CO., LTD., priority 2022, published 2025), which cites them from elsewhere.

For this data set the following is noted: oral administration of semaglutide (with SNAC).

As for Semaglutide, the bioavailability is 0.9-1.2%.
